# Assay results from article PMC4208085 (FEBS Open Bio, 2014).
# Biological target: the molecule itself
# Assay: crystal structure
protein,measurement,value
"C-terminal soluble domain of STOPP (stomatin operon partner protein) PH1510 from Pyrococcus horikoshii (domain or fragment, UniProt O59179 371-441, looked up) KARTGKEEMIGLIGTVVEELNPEGMIKVRGELWKARSKFNGKIEKGEKVRVVDMDGLTLIVVRERKEGGEK",binding result,binds
